Experiment [1] has as its target T1, PIV1 F literature prefusion comparison (PIV1).
T1 construct: F113G, F114S, A466I, S473I (Stewart-Jones et al. 2018)
In words: BLI, 56C stress.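 Further: binding of thermally stressed PIV1 F mutant supernatant to mAb on AHC biosensors for 5 min.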 On the technique in general: In BLI a coated tip is dipped into the sample, and binding shifts an interference pattern.
Method: (§1) The OCTET HTX (Sartorius, Gottingen, Germany) instrument was used to evaluate the expression and conformational integrity for each mutant. All measurements were conducted at 30° C. temperature in 96-well black plates (Corning, Corning, NY) with a final volume of 240 μL per well at a constant agitation rate of 1000 RPM.
(§2) Conformation integrity of PIV1 F protein mutants were evaluated by a thermal stress experiment. Crude cell culture supernatants were normalized based on the results of the titer quantitation and then incubated for 1 hour at room temperature and two higher temperatures. For the initial testing of PIV1 mutants, the two temperatures were 50° C. and 53° C. […] Anti-Human IgG Fc Capture (AHC) biosensors were first equilibrated in PB for before being dipped into more PB to establish the initial baseline. […] The mAb-bound biosensors were then dipped into the thermal stresses cell culture supernatants for 5 minutes.

The target in experiment [2] is T2, PIV1069 (PIV1).
T2 construct: F113G, F114S, A466L, S473L, G134A
The experiment can be described thus: BLI, 56C stress.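 Further: binding of thermally stressed PIV1 F mutant supernatant to mAb on AHC biosensors for 5 min.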
Method: as §1, §2

Experiment [3] deals with T3, PIV1070 (PIV1).
T3 construct: F113G, F114S, A466I, S473I, G134A
In words: BLI, 56C stress.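 Further: binding of thermally stressed PIV1 F mutant supernatant to mAb on AHC biosensors for 5 min.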
Method: as §1, §2

Experiment [4] concerns the target T1, PIV1 F literature prefusion comparison. The experiment can be described thus: BLI, 53C stress.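 Further: binding of thermally stressed PIV1 F mutant supernatant to mAb on AHC biosensors for 5 min.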
Method: as §1, §2
The target in experiment [5] is T2, PIV1069. The experiment can be described thus: BLI, 53C stress.
Method: as §1, §2
In experiment [6] the target is T3, PIV1070. In words: BLI, 53C stress.
Method: as §1, §2
For a further experiment, the target named is T4, hMPV085 (hMPV A, UniProt Q6WB98 19-102).
T4 construct: T411C-Q434C, L141C-A161C, A459P
In words: BLI, 58C stress.

The target of a further experiment is T5, hMPV088 (hMPV A, UniProt Q6WB98 19-102).
T5 construct: T411C-Q434C, L141C-A161C, G239A
The experiment can be described thus: BLI, 58C stress.

The target in the next experiment is T6, hMPV086 (hMPV A, UniProt Q6WB98 19-102).
T6 construct: T411C-Q434C, L141C-A161C, T49I; also called hMP0086
The experiment can be described thus: BLI, 58C stress.

The target in another experiment is T7, hMPV081 (hMPV A, UniProt Q6WB98 19-102).
T7 construct: T411C-Q434C, A140C-S149C, T365I
In words: BLI, 58C stress.

The next experiment deals with T8, hMPV078 (hMPV A, UniProt Q6WB98 19-102).
T8 construct: T411C-Q434C, A140C-S149C
In words: BLI, 58C stress.

A further experiment addresses T9, hMPV144 (hMPV B, UniProt Q6WB98 19-102).
T9 construct: T49I, L141C-A161C, S149T, A459P
The experiment can be described thus: BLI, no stress.

Another experiment addresses T10, hMPV127 (hMPV B, UniProt Q6WB98 19-102).
T10 construct: A140C-S149C, G239A, T411C-Q434C, A459P
The experiment can be described thus: BLI, no stress.

In the next experiment the target is T11, hMPV119 (hMPV B, UniProt Q6WB98 19-102).
T11 construct: T49I, T150C-R156C, A459P
The experiment can be described thus: BLI, no stress.

The target in the next experiment is hMPV B F WT Control (hMPV B, UniProt Q6WB98 19-102). In words: BLI, no stress.
In the next experiment the target is T12, hMPV117 (hMPV B, UniProt Q6WB98 19-102).
T12 construct: T150C-R156C, A459P
In words: BLI, no stress.

Another experiment deals with T13, hMPV140 (hMPV B, UniProt Q6WB98 19-102).
T13 construct: T49I, L141C-A161C, T411C-Q434C, A459P
The experiment can be described thus: BLI, no stress.

The target in another experiment is T14, hMPV126 (hMPV B, UniProt Q6WB98 19-102).
T14 construct: T49I, T150C-R156C, G239A, A459P
The experiment can be described thus: BLI, no stress.

For the next experiment, the target named is T15, hMPV121 (hMPV B, UniProt Q6WB98 19-102).
T15 construct: L141C-A161C, T411C-Q434C
In words: BLI, no stress.

A further experiment has as its target T16, hMPV139 (hMPV B, UniProt Q6WB98 19-102).
T16 construct: T49I, L141C-A161C, T411C-Q434C
In words: BLI, no stress.

The target in the next experiment is T17, hMPV134 (hMPV B, UniProt Q6WB98 19-102).
T17 construct: T49I, L141C-A161C, S149T, G239A, T365I, T411C-Q434C, A459P
The experiment can be described thus: BLI, no stress.

A further experiment deals with T18, hMPV124 (hMPV B, UniProt Q6WB98 19-102).
T18 construct: L141C-A161C, T411C-Q434C, A459P
In words: BLI, no stress.

For the next experiment, the target named is T19, hMPV125 (hMPV B, UniProt Q6WB98 19-102).
T19 construct: L141C-A161C, G239A, T411C-Q434C
The experiment can be described thus: BLI, no stress.

A further experiment concerns the target T20, hMPV123 (hMPV B, UniProt Q6WB98 19-102).
T20 construct: A140C-S149C, G239A, T411C-Q434C
In words: BLI, no stress.

Another experiment addresses T21, hMPV122 (hMPV B, UniProt Q6WB98 19-102).
T21 construct: A140C-S149C, T411C-Q434C, A459P
The experiment can be described thus: BLI, no stress.

A further experiment deals with T22, hMPV128 (hMPV B, UniProt Q6WB98 19-102).
T22 construct: T49I, A140C-S149C, G239A, T411C-Q434C, A459P
In words: BLI, no stress.

In another experiment the target is T23, hMPV131 (hMPV B, UniProt Q6WB98 19-102).
T23 construct: T49I, L141C-A161C, G239A, T411C-Q434C, A459P
The experiment can be described thus: BLI, no stress.

A further experiment concerns the target T24, hMPV132 (hMPV B, UniProt Q6WB98 19-102).
T24 construct: L141C-A161C, S149T, G239A, T411C-Q434C, A459P
The experiment can be described thus: BLI, no stress.

The next experiment deals with T25, hMPV130 (hMPV B, UniProt Q6WB98 19-102).
T25 construct: L141C-A161C, G239A, T411C-Q434C, A459P
The experiment can be described thus: BLI, no stress.

The target in another experiment is T26, hMPV142 (hMPV B, UniProt Q6WB98 19-102).
T26 construct: L141C-A161C, S149T, A459P
The experiment can be described thus: BLI, no stress.

For the next experiment, the target named is T27, hMPV138 (hMPV B, UniProt Q6WB98 19-102).
T27 construct: T49I, A140C-S149C, A459P
In words: BLI, no stress.

Method for hMPV078: as §1
(§3) Conformation integrity of hMPV A F protein mutants were evaluated by thermal stress experiments. Crude cell culture supernatants were normalized based on the results of the titer quantitation and then incubated for 1 hour at room temperature and two higher temperatures. […] Anti-Human IgG Fc Capture (AHC) biosensors were first equilibrated in PB before being dipped into more PB to establish the initial baseline. […] The mAb-bound biosensors were then dipped into the thermal stressed cell culture supernatants for 5 minutes. The kinetics analysis was done by OCTET data analysis software (version 12.0, Sartorius) based on curve fitting of the entire associate step.
Method for hMPV081: as §1, §3
Method for hMPV085: as §1, §3
Method for hMPV086: as §1, §3
Method for hMPV088: as §1, §3

B1: PIV1-8 mAb (antibody, V domains shown)
VH: QVQLVQSGAEVKKPGSSVKVSCEASGGTFSNYVISWVRQAPGQGLEWMGGIIPVFATAKYAQKFQGRVTIIADQSTNTAYLELSSLRSDDTAVYFCASVDSGGTWWDAFAIWGQGTMVTVSS
VL: QAVVTQPRSVSGSPGQAVTISCTGTSSDVGGYNYVSWYQHHPGKAPKLIIYDVTKRPSGVPDRFSGSKSGNTASLTISGLQTEYEADYYCCSYAGSYTLVFGGGTKLTVLG
notes: human IgG1; also called hPIV1-8 mAb; hPIV1-8
For B1, the “Response Shift” value in experiment [1] worked out at 0.458 nm; in the experiment with PIV1069 [2], 0.819 nm; with PIV1070 [3] it was 0.859 nm; in experiment [4], 0.717 nm; with PIV1069 [5], 0.847 nm; in the experiment with PIV1070 [6] it was 0.84 nm.

B2: hMPV-2 mAb (antibody, V domains shown)
VH: QVQLQQSGAEVKKPGASVKVSCKASGYTFTSYGISWVRQAPGQGLEWMGWISGYNGNTNYAQTFQGTFTMTTDTSTSTAYMELRRLRSGDTAVYYCARDRYYASGSYNGMDVWGQGTTVTVSS
VL: QSALTQPPSASGAPGQRVTVSCSGSSSNVGSSSVYWYQQLPGTAPKLLIYRNNQRPSGVPDRFSGSKSGTSASLAISGLRSEDEADYYCAAWDDSLSGWVFGGGTKLTVLG
notes: human IgG1
In the case of B2, the “Response Shift” value with hMPV085 is 0.076 nm; with hMPV088, 0.492 nm; with hMPV086, 0.735 nm; in the experiment with hMPV081, 0.804 nm; with hMPV078, 0.769 nm; with hMPV144, 0.712 nm. The “Response Shift” value in the experiment with hMPV127 stood at 0.719 nm; with hMPV119 it was 0.864 nm; with hMPV B F WT Control, 0.82 nm; with hMPV117 it was 0.723 nm; in the experiment with hMPV140 it was 0.731 nm; with hMPV126 it was 0.773 nm. The “Response Shift” value with hMPV121 stood at 0.842 nm; in the experiment with hMPV139 it was 0.699 nm; in the experiment with hMPV134 it was 0.718 nm; with hMPV124, 0.833 nm; with hMPV125, 0.847 nm; with hMPV123, 0.619 nm. The “Response Shift” value with hMPV122 was 0.73 nm; in the experiment with hMPV128 it was 0.777 nm; with hMPV131, 0.727 nm; with hMPV132 it was 0.704 nm; with hMPV130, 0.71 nm; with hMPV142 it was 0.731 nm. In addition, the “Response Shift” value in the experiment with hMPV138 came out at 0.681 nm.

Values taken from patent publication US20240252614A1 (Pfizer, published 2024).
